We go through one substance from IntAct's records for PubMed 24165324.

The target in this experiment is gsk3b_human GSK3B (UniProt P49841).
UniProt P49841, sequence (P49841 whole entry, looked up): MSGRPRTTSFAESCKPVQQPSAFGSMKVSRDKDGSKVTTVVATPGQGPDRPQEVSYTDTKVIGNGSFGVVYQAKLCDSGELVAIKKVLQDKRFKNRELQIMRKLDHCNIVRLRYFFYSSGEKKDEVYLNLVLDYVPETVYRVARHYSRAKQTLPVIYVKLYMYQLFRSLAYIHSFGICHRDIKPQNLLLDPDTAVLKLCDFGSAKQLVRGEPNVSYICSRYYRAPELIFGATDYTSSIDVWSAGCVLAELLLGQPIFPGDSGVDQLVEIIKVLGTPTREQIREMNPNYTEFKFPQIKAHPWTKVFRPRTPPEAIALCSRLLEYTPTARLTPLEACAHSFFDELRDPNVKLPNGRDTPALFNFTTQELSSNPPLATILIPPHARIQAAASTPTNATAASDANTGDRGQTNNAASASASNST

“Leucine-rich repeat serine/threonine-protein kinase 2 (Homo sapiens), Q5S007 G2019S”: the “effect of a mutation on the interaction” value is listed as “increasing interaction”.
